B1: Flag-WHRN (wild type) [mouse] / Myc-USH2A (usherin, aa 4819-5193) [mouse] (parent complex)
chain 1: MNAQLDGLSVSSSSTGSLGSAAAAAGGGGGAGLRLLSANVRQLHQALTALLSEPEREQFTHCLNAYHARRNVFDLVRTLRVLLDSPVKRRLLPMLRLVIPRSDQLLFDQYTAEGLYLPATTPYRQPAWAAPDGAGPGEVRLVSLRRAKAHEGLGFSIRGGSEHGVGIYVSLVEPGSLAEKEGLRVGDQILRVNDKSLARVTHAEAVKALKGSKKLVLSVYSAGRIPGGYVTNHIYTWVDPQGRSTSPPSSLPQPHGSTLRQREDDRRSTLHLLQSGDEKKVNLVLGDGRSLGLTIRGGAEYGLGIYITGVDPGSEAESSGLKVGDQILEVNGRSFLNILHDEAVKLLKSSRHLILTVKDVGRLPHARTTVDQTKWIASSRIGESVANSAGFPGDHTEEGTSKPGFYKGPAGSQVTLSSLGNQTRALLDDQARHLLTEQERATMMYYLAQYRGGTISVEAMVMALFELLNTHAKFSLLSEVRSIISPQDLDRFDHLVLRREIESMKARQPPGPGVGDTYSMVSYSDTGSSTGSHGTSTTVSSARERLLWLIDLMENTLDLEGTGETTQGSTNALPDVSVDDVKSPSEDLPGIKPPPPPPPLAQGHDRLLGQPRKPGREDPAPLSSAAHSGIVFSAPRNRSPPPGTAPTPGPSSAQDSPSSPIYASISHANPSSRKPLDTHLALVNQHPIGPFPRVQSPPHLKSPPAETPGAGACLPPPSPSEHPDAVGANQHFVLVEVHRPDSEPDVNEVRALPQTRTASTLSQLSDSGQTLSEDSGVDAGETEASTSGRGRQTASAKNKNGKEQPRTERTAEGANKPPGLLEPTSTLVRVRKSAATLGIAIEGGANTRQPLPRIVTIQRGGSAHNCGQLKVGHVILEVNGQTLRGKEHKEAARIIAEAFKTKERDYIDFLVTEFNVML
chain 2: PPSGLSPPQVQTLGSRMASVHWTPPLLPNGVIHSYELQLQRACPPDSAPRCPPSHTERKYWGPGHRASLAGLQPNTAYGVQVVAYNEAGSTASGWTNFSTKKEMPQYQALFSVDSNASMVWVDWSGTFLLNGHLKEYVVTDGGRRVYSGLDTTLYIPRMVDKIFFFQVTCTTDIGSVKTPLVQYDAATGSGLVLTTPGEKKGAGTKSTEFYSELWFIMVMAVVGLILLAIFLSLILQRKIHKEPCIRERPPLVPLQKRMTPLSVYPPGETHVGLADTRLPRSGTPMSIRSSQSVSVLRIPSQSQLSHAYSQSSLHRSVSQLMDMADKKVVTEDSLWETIMGHSSGLYVDEEELMNAIKGFSSVTKEHTAFTDTHL

Variants of: B1
Assay: co-immunoprecipitation (band intensity quantified); HEK293 cells; n = 3; parent: 1; read off a plot

Variant	ratio to parent
chain 1 S37E	~1
chain 1 S156E	~1
chain 1 S85E	~1

The remaining lines, values ahead:

ratio to parent	Variant
~1	chain 1 S246E
~1	chain 1 S384E
